{"source": "paper PMC2386126", "about": "“The Mycobacterium tuberculosis Rv2540c DNA sequence encodes a bifunctional chorismate synthase” (BMC Biochemistry, 2008)", "molecular_target": "the molecule itself", "test": "SEC", "data": [{"protein": "chorismate synthase from M. tuberculosis (enzyme, also called MtCS; CS) MLRWITAGESHGRALVAVVEGMVAGVHVTSADIADQLARRRLGYGRGARMTFERDAVTVLSGIRHGSTLGGPIAIEIGNTEWPKWETVMAADPVDPAELADVARNAPLTRPRPGHADYAGMLKYGFDDARPVLERASARETAARVAAGTVARAFLRQALGVEVLSHVISIGASAPYEGPPPRAEDLPAIDASPVRAYDKAAEADMIAQIEAAKKDGDTLGGVVEAVALGLPVGLGSFTSGDHRLDSQLAAAVMGIQAIKGVEIGDGFQTARRRGSRAHDEMYPGPDGVVRSTNRAGGLEGGMTNGQPLRVRAAMKPISTVPRALATVDLATGDEAVAIHQRSDVCAVPAAGVVVETMVALVLARAALEKFGGDSLAETQRNIAAYQRSVADREAPAARVSG", "values": [{"measurement": "stoichiometry N", "result": 2}]}]}
